Columns and labels:
[1] = biological target: T1, MpAgo, recombinant purified (Marinitoga piezophila, UniProt H2J4R4 1-639); test: pull-down; bait MpCAPP-MBP (20 µg) pre-bound to amylose resin and washed; one prey protein (20 µg) added in 200 µl; 25 mM HEPES pH 7.5, 100 mM NaCl, 50 mM KCl, 3 mM MgCl2, 5% glycerol, 0.5 mM TCEP, 0.1% IGEPAL CA-630; 4 °C, 45 min; Coomassie-stained SDS-PAGE; conditions: both partners purified
T1 construct: Argonaute, Marinitoga piezophila, expressed from pET-6His-MBP-MpAgo (Addgene, number not given); His-MBP tag removed with HRV 3C protease; source: E. coli BL21(DE3)pLysS, purified (CoHis resin, tag removal, heparin, Superdex 200)
T1 sequence (looked up): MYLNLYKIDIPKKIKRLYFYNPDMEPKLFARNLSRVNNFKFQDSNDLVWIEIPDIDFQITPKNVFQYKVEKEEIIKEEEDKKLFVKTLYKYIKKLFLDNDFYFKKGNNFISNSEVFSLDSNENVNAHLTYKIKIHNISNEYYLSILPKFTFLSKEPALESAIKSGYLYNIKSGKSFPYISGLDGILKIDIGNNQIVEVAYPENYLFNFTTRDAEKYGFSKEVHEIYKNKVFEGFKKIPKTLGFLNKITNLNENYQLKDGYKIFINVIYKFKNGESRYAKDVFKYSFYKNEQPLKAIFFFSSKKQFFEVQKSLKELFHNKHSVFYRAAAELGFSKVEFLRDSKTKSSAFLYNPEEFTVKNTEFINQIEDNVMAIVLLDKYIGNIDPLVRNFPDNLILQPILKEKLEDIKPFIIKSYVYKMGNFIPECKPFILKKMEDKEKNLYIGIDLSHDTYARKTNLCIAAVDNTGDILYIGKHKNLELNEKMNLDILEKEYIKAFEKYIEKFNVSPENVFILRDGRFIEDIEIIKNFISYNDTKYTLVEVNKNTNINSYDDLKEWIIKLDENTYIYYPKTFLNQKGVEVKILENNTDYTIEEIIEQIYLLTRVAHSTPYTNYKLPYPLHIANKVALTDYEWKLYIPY

[2] = biological target: the molecule itself; test: SEC; MpCAPP-MBP on Superdex 200 10/300

B1: MpCAPP with C-terminal MBP fusion (MpCAPP-MBP), recombinant (enzyme, Marinitoga piezophila, UniProt H2J4R1 1-546, looked up)
chain: MNFKELAFKAEEDFDFEKAIEYYKKAFNELTINDDSLIRYANLLFDFQKFEEAEPIFEKIVSEINDSEYMSKLAIIYEENNKFEKALKIYKELGIESKVKELSDKIELKAPSQNAIKRFMTLFSGREDVFSIQYEGGYRPIRRPLNFHDIKDHFSGKKTLGIYLLKKNDTVKFAAYDIDIKKHYLNREDKFVYEENSKKVAKRLSRELNLENIIHYFEFTGNRGYHIWIFFDIPVSAYKIKYIMEKILDRIELEEGIDVEIFPKQTSLNGGLGNLIKVPLGVHKKTGKKCLFVDNDFNVIENQIEFLNNIKENKATEIDKLFREIFNENDYDDFNVTYKKRTTSSKNSASKKIKSSIRKTLPKSNKNIFTQMIEGCHILKQINEKIEKEAYITEEEEMIFIKSLANLENSKKFIEMKLSQTINFSKKRIDMIIKQSLGVPITCEEIRKIILNKDISLSLENCTCKFQGNYNSPYAIVENIEEMFLDKIDINDIAKKIVEKNAEKFEIEKEIKNLKRMIAKKMGDSKELRTEIGTIKRFGDDIEIIL
notes: MpCAPP, Marinitoga piezophila, Marpi_0402 / WP_014295918.1; the MBP fusion has a size of ~108 kDa; Codon-optimised gene in Supplementary Note 4; cloning details in Supplementary Data 3; also called MpCAPP WT; CAPP WT (C-terminal MBP); source: E. coli BL21 (DE3), purified (cobalt NTA, amylose resin); not shown: MBP, C-terminal, kept
binding result [1]: binds | binding result [2]: binds

— PMC8211822, “CRISPR-Associated Primase-Polymerases are implicated in prokaryotic CRISPR-Cas adaptation” (Nature Communications, 2021)
